{"source": "patent US20120207760A1", "conditions_in_all_cases": "remark: other sources report otherwise", "key": {"[1]": {"molecular_target": "T1, recombinant homotrimeric HA, A/Indonesia/5/05 H5N1 (Influenza A virus A/Indonesia/5/05 (H5N1))", "assay": "trimeric HA microarray, transfection set 1"}, "[2]": {"molecular_target": "T2, recombinant homotrimeric HA, A/South Carolina/1/18 H1N1 (Influenza A virus A/South Carolina/1/18 (H1N1))", "assay": "trimeric HA microarray, transfection set 1"}, "[3]": {"molecular_target": "T3, recombinant homotrimeric HA, A/chicken/Vietnam/NCVD-016/08 H5N1 (Influenza A virus A/chicken/Vietnam/NCVD-016/08 (H5N1))", "assay": "trimeric HA microarray, transfection set 1"}, "[4]": {"molecular_target": "T4, recombinant homotrimeric HA, A/Vietnam/1203/04 H5N1 (Influenza A virus A/Vietnam/1203/04 (H5N1))", "assay": "trimeric HA microarray, transfection set 1"}, "[5]": {"molecular_target": "T5, recombinant homotrimeric HA, A/Egypt/3300-NAMRU3/08 H5N1 (Influenza A virus A/Egypt/3300-NAMRU3/08 (H5N1))", "assay": "trimeric HA microarray, transfection set 1"}, "[6]": {"molecular_target": "T6, recombinant homotrimeric HA, A/common magpie/Hong Kong/5052/07 H5N1 (Influenza A virus A/common magpie/Hong Kong/5052/07 (H5N1))", "assay": "trimeric HA microarray, transfection set 1"}, "[7]": {"molecular_target": "T1, recombinant homotrimeric HA, …", "assay": "trimeric HA microarray, transfection set 2"}, "[8]": {"molecular_target": "T2, recombinant homotrimeric HA, A/South …", "assay": "trimeric HA microarray, transfection set 2"}, "[9]": {"molecular_target": "T7, recombinant homotrimeric HA, A/swine/Ontario/01911-2/99 H4N6 (Influenza A virus A/swine/Ontario/01911-2/99 (H4N6))", "assay": "trimeric HA microarray, transfection set 2"}, "[10]": {"molecular_target": "T3, recombinant homotrimeric HA, …", "assay": "trimeric HA microarray, transfection set 2"}, "[11]": {"molecular_target": "T4, recombinant homotrimeric HA, …", "assay": "trimeric HA microarray, transfection set 2"}, "[12]": {"molecular_target": "T8, recombinant homotrimeric HA, A/Solomon Islands/3/06 H1N1 (Influenza A virus A/Solomon Islands/3/06 (H1N1))", "assay": "trimeric HA microarray, transfection set 2"}, "[13]": {"molecular_target": "T9, recombinant homotrimeric HA, A/California/4/09 H1N1 (Influenza A virus A/California/4/09 (H1N1))", "assay": "trimeric HA microarray, transfection set 2"}, "[14]": {"molecular_target": "T10, recombinant homotrimeric HA, A/Hong Kong/2108/03 H9N2 (Influenza A virus A/Hong Kong/2108/03 (H9N2))", "assay": "trimeric HA microarray, transfection set 2"}, "[15]": {"molecular_target": "T5, recombinant homotrimeric HA, …", "assay": "trimeric HA microarray, transfection set 2"}, "[16]": {"molecular_target": "T11, recombinant homotrimeric HA, A/Japan/305/57 H2N2 (Influenza A virus A/Japan/305/57 (H2N2))", "assay": "trimeric HA microarray, transfection set 2"}, "[17]": {"molecular_target": "T6, recombinant homotrimeric HA, A/common …", "assay": "trimeric HA microarray, transfection set 2"}, "[18]": {"molecular_target": "T1, recombinant homotrimeric HA, …", "assay": "trimeric HA microarray, transfection set 3"}, "[19]": {"molecular_target": "T2, recombinant homotrimeric HA, A/South …", "assay": "trimeric HA microarray, transfection set 3"}, "[20]": {"molecular_target": "T7, recombinant homotrimeric HA, …", "assay": "trimeric HA microarray, transfection set 3"}, "[21]": {"molecular_target": "T3, recombinant homotrimeric HA, …", "assay": "trimeric HA microarray, transfection set 3"}, "[22]": {"molecular_target": "T4, recombinant homotrimeric HA, …", "assay": "trimeric HA microarray, transfection set 3"}, "[23]": {"molecular_target": "T8, recombinant homotrimeric HA, A/Solomon …", "assay": "trimeric HA microarray, transfection set 3"}, "[24]": {"molecular_target": "T9, recombinant homotrimeric HA, …", "assay": "trimeric HA microarray, transfection set 3"}, "[25]": {"molecular_target": "T10, recombinant homotrimeric HA, A/Hong …", "assay": "trimeric HA microarray, transfection set 3"}, "[26]": {"molecular_target": "T5, recombinant homotrimeric HA, …", "assay": "trimeric HA microarray, transfection set 3"}, "[27]": {"molecular_target": "T11, recombinant homotrimeric HA, …", "assay": "trimeric HA microarray, transfection set 3"}, "[28]": {"molecular_target": "T6, recombinant homotrimeric HA, A/common …", "assay": "trimeric HA microarray, transfection set 3"}}, "data": [{"binder": "TCN-504 (3251_K17) (antibody, V domains shown) VH: QVQLQESGPGLVKPSETLSLTCAVSGVSISNIDFYWGWIRQPPGKGLEWIGNIYYTGITFYNPSLSSRVAISIDTSKNQFSLTLTSVTAADTAMYYCARHYGDSEAINDAFDIWGQGTMLTVSS VL: EIVMTQSPATLSVSPGERATLSCRASQSVGNSLAWYQQRPGQAPRLLIYGASTRATGIPPRFSGSGSGTEFTLTISSLQTEDFAVYYCQQYINWRPLSFGGGTKVEIK", "values": [{"measurement": "Trimeric HA Binding RLU", "setting": "[1]", "value": 16600, "unit": "RLU"}, {"measurement": "Trimeric HA Binding RLU", "setting": "[2]", "value": 21500, "unit": "RLU"}, {"measurement": "Trimeric HA Binding RLU", "setting": "[3]", "value": 27800, "unit": "RLU"}, {"measurement": "Trimeric HA Binding RLU", "setting": "[4]", "value": 1300, "unit": "RLU"}, {"measurement": "Trimeric HA Binding RLU", "setting": "[5]", "value": 16100, "unit": "RLU"}, {"measurement": "Trimeric HA Binding RLU", "setting": "[6]", "value": 29700, "unit": "RLU"}, {"measurement": "Trimeric HA Binding RLU", "setting": "[7]", "value": 19700, "unit": "RLU"}, {"measurement": "Trimeric HA Binding RLU", "setting": "[8]", "value": 24700, "unit": "RLU"}, {"measurement": "Trimeric HA Binding RLU", "setting": "[9]", "value": 32500, "unit": "RLU"}, {"measurement": "Trimeric HA Binding RLU", "setting": "[10]", "value": 27300, "unit": "RLU"}, {"measurement": "Trimeric HA Binding RLU", "setting": "[11]", "value": 15000, "unit": "RLU"}, {"measurement": "Trimeric HA Binding RLU", "setting": "[12]", "value": 31400, "unit": "RLU"}, {"measurement": "Trimeric HA Binding RLU", "setting": "[13]", "value": 15600, "unit": "RLU"}, {"measurement": "Trimeric HA Binding RLU", "setting": "[14]", "value": 23, "unit": "RLU"}, {"measurement": "Trimeric HA Binding RLU", "setting": "[15]", "value": 21400, "unit": "RLU"}, {"measurement": "Trimeric HA Binding RLU", "setting": "[16]", "value": 22600, "unit": "RLU"}, {"measurement": "Trimeric HA Binding RLU", "setting": "[17]", "value": 16800, "unit": "RLU"}, {"measurement": "Trimeric HA Binding RLU", "setting": "[18]", "value": 18600, "unit": "RLU"}, {"measurement": "Trimeric HA Binding RLU", "setting": "[19]", "value": 27600, "unit": "RLU"}, {"measurement": "Trimeric HA Binding RLU", "setting": "[20]", "value": 34500, "unit": "RLU"}, {"measurement": "Trimeric HA Binding RLU", "setting": "[21]", "value": 10300, "unit": "RLU"}, {"measurement": "Trimeric HA Binding RLU", "setting": "[22]", "value": 13300, "unit": "RLU"}, {"measurement": "Trimeric HA Binding RLU", "setting": "[23]", "value": 32700, "unit": "RLU"}, {"measurement": "Trimeric HA Binding RLU", "setting": "[24]", "value": 18600, "unit": "RLU"}, {"measurement": "Trimeric HA Binding RLU", "setting": "[25]", "value": 36, "unit": "RLU"}, {"measurement": "Trimeric HA Binding RLU", "setting": "[26]", "value": 18000, "unit": "RLU"}, {"measurement": "Trimeric HA Binding RLU", "setting": "[27]", "value": 36000, "unit": "RLU"}, {"measurement": "Trimeric HA Binding RLU", "setting": "[28]", "value": 17800, "unit": "RLU"}]}, {"binder": "TCN-523 (5248_A17) (antibody, V domains shown) VH: QVQLVQSGAEVKKPGSSVKVSCKASGGSFSNYAFSWVRQAPGQGLEWMGGTIPLLGTTNYAQKFQGRVTISADQFTSTAYMELGSLRSEDTAVYYCTRRKMTTAFDSWGQGTLVTVSS VL: QPVLTQPPSASASLGASVTLTCTLSSAYSNYKVDWYQQRPGKGPRFVMRVGTGGIVGSKGDGIPDRFSVLGSGLNRYLTIKNIQEEDESDYHCGADHGSGSNFVSPYVFGGGTKLTVL", "values": [{"measurement": "Trimeric HA Binding RLU", "setting": "[1]", "value": 18500, "unit": "RLU"}, {"measurement": "Trimeric HA Binding RLU", "setting": "[2]", "value": 26400, "unit": "RLU"}, {"measurement": "Trimeric HA Binding RLU", "setting": "[3]", "value": 10800, "unit": "RLU"}, {"measurement": "Trimeric HA Binding RLU", "setting": "[4]", "value": 80, "unit": "RLU"}, {"measurement": "Trimeric HA Binding RLU", "setting": "[5]", "value": 25500, "unit": "RLU"}, {"measurement": "Trimeric HA Binding RLU", "setting": "[6]", "value": 6240, "unit": "RLU"}, {"measurement": "Trimeric HA Binding RLU", "setting": "[7]", "value": 24500, "unit": "RLU"}, {"measurement": "Trimeric HA Binding RLU", "setting": "[8]", "value": 25500, "unit": "RLU"}, {"measurement": "Trimeric HA Binding RLU", "setting": "[9]", "value": 82, "unit": "RLU"}, {"measurement": "Trimeric HA Binding RLU", "setting": "[10]", "value": 17600, "unit": "RLU"}, {"measurement": "Trimeric HA Binding RLU", "setting": "[11]", "value": 26200, "unit": "RLU"}, {"measurement": "Trimeric HA Binding RLU", "setting": "[12]", "value": 3270, "unit": "RLU"}, {"measurement": "Trimeric HA Binding RLU", "setting": "[13]", "value": 18700, "unit": "RLU"}, {"measurement": "Trimeric HA Binding RLU", "setting": "[14]", "value": 18, "unit": "RLU"}, {"measurement": "Trimeric HA Binding RLU", "setting": "[15]", "value": 30700, "unit": "RLU"}, {"measurement": "Trimeric HA Binding RLU", "setting": "[16]", "value": 882, "unit": "RLU"}, {"measurement": "Trimeric HA Binding RLU", "setting": "[17]", "value": 7210, "unit": "RLU"}, {"measurement": "Trimeric HA Binding RLU", "setting": "[18]", "value": 22000, "unit": "RLU"}, {"measurement": "Trimeric HA Binding RLU", "setting": "[19]", "value": 23700, "unit": "RLU"}, {"measurement": "Trimeric HA Binding RLU", "setting": "[20]", "value": 1640, "unit": "RLU"}, {"measurement": "Trimeric HA Binding RLU", "setting": "[21]", "value": 18900, "unit": "RLU"}, {"measurement": "Trimeric HA Binding RLU", "setting": "[22]", "value": 22100, "unit": "RLU"}, {"measurement": "Trimeric HA Binding RLU", "setting": "[23]", "value": 11000, "unit": "RLU"}, {"measurement": "Trimeric HA Binding RLU", "setting": "[24]", "value": 19400, "unit": "RLU"}, {"measurement": "Trimeric HA Binding RLU", "setting": "[25]", "value": 51, "unit": "RLU"}, {"measurement": "Trimeric HA Binding RLU", "setting": "[26]", "value": 29100, "unit": "RLU"}, {"measurement": "Trimeric HA Binding RLU", "setting": "[27]", "value": 4550, "unit": "RLU"}, {"measurement": "Trimeric HA Binding RLU", "setting": "[28]", "value": 640, "unit": "RLU"}]}]}
